Blank lines part the entries; values can stand above or below the molecule they belong to.
Legend:
[1] = target: HLA-A2 molecule on the surface of tumor cell lines (human); experiment: flow cytometry on SKN-JC-1 cells (NB)
[2] = target: HLA-A2 molecule on the surface of tumor cell lines (human); experiment: flow cytometry on HTB37-pp65/GFP cells (Colon)
[3] = target: HLA-A2 molecule on the surface of tumor cell lines (human); experiment: flow cytometry on SK-ES-1 cells (Ewing's sarcoma)
[4] = target: HLA-A2 molecule on the surface of tumor cell lines (human); experiment: flow cytometry on SKN-JC-2 cells (NB)
[5] = target: HLA-A2 molecule on the surface of tumor cell lines (human); experiment: flow cytometry on U87 cells (Glioblastoma)
[6] = target: HLA-A2 molecule on the surface of tumor cell lines (human); experiment: flow cytometry on Colo 205 cells (Colon)
[7] = target: HLA-A2 molecule on the surface of tumor cell lines (human); experiment: flow cytometry on THP-1 cells (Leukemia)
[8] = target: HLA-A2 molecule on the surface of tumor cell lines (human); experiment: flow cytometry on LAN-1 cells (NB)
[9] = target: HLA-A2 molecule on the surface of tumor cell lines (human); experiment: flow cytometry on SKMEL-5 cells (Melanoma)
[10] = target: HLA-A2 molecule on the surface of tumor cell lines (human); experiment: flow cytometry on BA25-17 cells (Leukemia)
[11] = target: HLA-A2 molecule on the surface of tumor cell lines (human); experiment: flow cytometry on SKHEP-1 cells (Liver)
[12] = target: HLA-A2 molecule on the surface of tumor cell lines (human); experiment: flow cytometry on JMN cells (Mesothelioma)
[13] = target: HLA-A2 molecule on the surface of tumor cell lines (human); experiment: flow cytometry on HepG2 cells (Liver)
[14] = target: HLA-A2 molecule on the surface of tumor cell lines (human); experiment: flow cytometry on SW480 cells (Colon)
[15] = target: HLA-A2 molecule on the surface of tumor cell lines (human); experiment: flow cytometry on OVCAR-3 cells (Ovarian)
[16] = target: HLA-A2 molecule on the surface of tumor cell lines (human); experiment: flow cytometry on U251 cells (Glioblastoma)
[17] = target: HLA-A2 molecule on the surface of tumor cell lines (human); experiment: flow cytometry on K562 cells (Leukemia)
[18] = target: HLA-A2 molecule on the surface of tumor cell lines (human); experiment: flow cytometry on BA25-69 cells (Leukemia)
[19] = target: HLA-A2 molecule on the surface of tumor cell lines (human); experiment: flow cytometry on Molt-4 cells (Leukemia)
[20] = target: HLA-A2 molecule on the surface of tumor cell lines (human); experiment: flow cytometry on K562-HLA-A2 cells (Leukemia)
[21] = target: HLA-A2 molecule on the surface of tumor cell lines (human); experiment: flow cytometry on SKNLD cells (NB)
[22] = target: HLA-A2 molecule on the surface of tumor cell lines (human); experiment: flow cytometry on NCI-H345 cells (Small cell lung cancer)
[23] = target: HLA-A2 molecule on the surface of tumor cell lines (human); experiment: flow cytometry on JN-DSRCT cells (Desmoplastic small round cell tumor)
[24] = target: HLA-A2 molecule on the surface of tumor cell lines (human); experiment: flow cytometry on SKOV-3 cells (Ovarian)
[25] = target: HLA-A2 molecule on the surface of tumor cell lines (human); experiment: flow cytometry on NCI-H522 cells (Non-small cell lung cancer)
[26] = target: HLA-A2 molecule on the surface of tumor cell lines (human); experiment: flow cytometry on MDA-MB-231(HTB-26) cells (Breast)
[27] = target: HLA-A2 molecule on the surface of tumor cell lines (human); experiment: flow cytometry on OVCAR3-pp65 cells (Ovarian)
[28] = target: HLA-A2 molecule on the surface of tumor cell lines (human); experiment: flow cytometry on BV-173 cells (Leukemia)
[29] = target: HLA-A2 molecule on the surface of tumor cell lines (human); experiment: flow cytometry on MDA-MB-468(HTB-132) cells (Breast)
[30] = target: HLA-A2 molecule on the surface of tumor cell lines (human); experiment: flow cytometry on MCF-7 cells (Breast)
[31] = target: HLA-A2 molecule on the surface of tumor cell lines (human); experiment: flow cytometry on MDA-MB-361(HTB-27) cells (Breast)
[32] = target: HLA-A2 molecule on the surface of tumor cell lines (human); experiment: flow cytometry on SKNJB cells (NB)
[33] = target: HLA-A2 molecule on the surface of tumor cell lines (human); experiment: flow cytometry on U2 OS cells (Osteosarcoma)
[34] = target: HLA-A2 molecule on the surface of tumor cell lines (human); experiment: flow cytometry on SKBR3 cells (Breast)
[35] = target: HLA-A2 molecule on the surface of tumor cell lines (human); experiment: flow cytometry on Caco-2 (HTB-37) cells (Colon)
[36] = target: T1, biotinylated HLA-A2/WT1126 (…) monomer (human, biotin at a specific biotinylation site at the C-terminus); experiment: SPR Biacore T100; biotinylated pMHC captured, antibody injected; 1:1 fit
T1 construct: also called HLA-A2-WT1 monomer; WT1126/HLA-A2
Method: Kinetics and affinities of various antibodies and WT1₁₂₆/HLA-A2 were analyzed by surface plasmon resonance technology using a Biacore T100 instrument (GE healthcare). Biotinylated WT1₁₂₆/HLA-A2 was captured by streptavidin-fusion protein on a sensor chip (CM5). A control reference surface was prepared for nonspecific binding and refractive index changes. For analysis of the kinetics of interactions, varying concentrations of antibodies were injected at flow rate of 30 μl/min using a running buffer containing 10 mM HEPES, 150 mM NaCl, 3 mM EDTA, and 0.05% Surfactant P-20 (pH 7.4). The association and dissociation phase data were fitted simultaneously to a 1:1 model by using BIAevaluation 3.2. All the experiments were done at 25° C.

[37] = target: HLA-A2/WT1 187-195 (…) complex (human, biotin at a specific biotinylation site at the C-terminus); experiment: ELISA on wells coated with the named HLA-A2/peptide monomer, HRP anti-Flag detection, OD 490 nm
[38] = target: HLA-A2/WT1 235-243 (…) complex (human, biotin at a specific biotinylation site at the C-terminus); experiment: as above
[39] = target: T1, biotinylated HLA-A2/WT1126 (…) monomer; experiment: ELISA: wells coated with HLA-A2-WT1 (…) monomer, serially diluted scFv, HRP anti-Flag detection, OD 490 nm
Method: (§1) The specificity of individual phage clones, soluble scFv and scFv-Fc antibodies was assessed by ELISA at RT with indirectly coated HLA-A2/peptide complexes. Vinyl flat bottom microtiter plates (Thermo Fisher) were used for ELISA assays. Plates were initially coated overnight at 4° C. with BSA-biotin (10 g/ml; 50 μl/well). The next day, the contents were discarded and the plates incubated at RT with streptavidin (10 g/ml; 50 μl/well) for 1 h. The contents were discarded and the plates incubated with recombinant biotinylated HLA-A2/peptide complexes (5 μg/ml; 50 μl/well) at RT for 1 h. The plates were then incubated with 2% milk PBS (150 μl/well) at RT for 1 h. After blocking, the plates were washed 3 times with PBS and then incubated with bacterial supernatant from their respective HB2151 culture plate wells, purified scFv, or purified scFv-Fc at RT for 1 h. After the contents were discarded, the plates were washed 5 times with PBS, and then incubated with a horse radish peroxidase (HRP) conjugated mouse-anti-Flag tag antibody (1:5000 dilution, Sigma Aldrich) to detect the scFv, or a HRP conjugated goat-anti-human Fc antibody (0.5 μg/ml, Jackson Immunoresearch Laboratories) to detect the scFv-Fc. […]

[40] = target: T1, biotinylated HLA-A2/WT1126 (…) monomer; experiment: ELISA: wells coated with HLA-A2-WT1 ([..]) monomer, serially diluted scFv, HRP anti-Flag detection, OD 490 nm
Method: as §1

HLA-A2/CDR2 (…) tetramer = target: T2, HLA-A2/CDR2 (…) tetramer (human); experiment: flow cytometry of CAR NK-92 cells, control HLA-A2/CDR2 tetramer (y) against GFP (x)
T2 construct: Peptide from cerebellar degeneration-related protein 2; also called negative control (HLA-A2-CDR2) tetramer; irrelevant HLA-A2/CDR2-derived peptide

HLA-A2 on T2 cells = target: T3, HLA-A2 on T2 cells (human); experiment: T2 cells pulsed with peptide, staining with anti-HLA-A2 BB7.2
T3 construct: No peptide added; also called T2 cells alone; T2 cells without peptide

Molecule: BB7.2 (antibody)
Ratio (BB7.2/isotype) of mean fluorescence intensity [1]: 86.8 | Ratio (BB7.2/isotype) of mean fluorescence intensity [2]: 10.9 | Ratio (BB7.2/isotype) of mean fluorescence intensity [3]: 7.7 | Ratio (BB7.2/isotype) of mean fluorescence intensity [4]: 53.3 | Ratio (BB7.2/isotype) of mean fluorescence intensity [5]: 77.5 | Ratio (BB7.2/isotype) of mean fluorescence intensity [6]: 32.6 | Ratio (BB7.2/isotype) of mean fluorescence intensity [7]: 53.9 | Ratio (BB7.2/isotype) of mean fluorescence intensity [8]: 4.5 | Ratio (BB7.2/isotype) of mean fluorescence intensity [9]: 32.1 | Ratio (BB7.2/isotype) of mean fluorescence intensity [10]: 118 | Ratio (BB7.2/isotype) of mean fluorescence intensity [11]: 28.3 | Ratio (BB7.2/isotype) of mean fluorescence intensity [12]: 165 | Ratio (BB7.2/isotype) of mean fluorescence intensity [13]: 14.4 | Ratio (BB7.2/isotype) of mean fluorescence intensity [14]: 40.5 | Ratio (BB7.2/isotype) of mean fluorescence intensity [15]: 7.8 | Ratio (BB7.2/isotype) of mean fluorescence intensity [16]: 16.2 | Ratio (BB7.2/isotype) of mean fluorescence intensity [17]: 1.1 | Ratio (BB7.2/isotype) of mean fluorescence intensity [18]: 114 | Ratio (BB7.2/isotype) of mean fluorescence intensity [19]: 1.1 | Ratio (BB7.2/isotype) of mean fluorescence intensity [20]: 28.8 | Ratio (BB7.2/isotype) of mean fluorescence intensity [21]: 0.9 | Ratio (BB7.2/isotype) of mean fluorescence intensity [22]: 6.2 | Ratio (BB7.2/isotype) of mean fluorescence intensity [23]: 5.1 | Ratio (BB7.2/isotype) of mean fluorescence intensity [24]: 1 | Ratio (BB7.2/isotype) of mean fluorescence intensity [25]: 15.8 | Ratio (BB7.2/isotype) of mean fluorescence intensity [26]: 111 | Ratio (BB7.2/isotype) of mean fluorescence intensity [27]: 10 | Ratio (BB7.2/isotype) of mean fluorescence intensity [28]: 209 | Ratio (BB7.2/isotype) of mean fluorescence intensity [29]: 1.1 | Ratio (BB7.2/isotype) of mean fluorescence intensity [30]: 9.9 | Ratio (BB7.2/isotype) of mean fluorescence intensity [31]: 0.9 | Ratio (BB7.2/isotype) of mean fluorescence intensity [32]: 6.4 | Ratio (BB7.2/isotype) of mean fluorescence intensity [33]: 21.7 | Ratio (BB7.2/isotype) of mean fluorescence intensity [34]: 1.1 | Ratio (BB7.2/isotype) of mean fluorescence intensity [35]: 26.8

B1: Q1L scFv (scFv)
scFv: EVQLLESGGGLVQPGGSLRLSCAASGFTFSSYAMSWVRQAPGKGLEWVSLIDPWGQETLYADSVKGRFTISRDNSKNTLYLQMNSLRAEDTAVYYCAKLTGRFDYWGQGTLVTVSSGGGGSGGGGSGGGGSTDIQMTQSPSSLSASVGDRVTITCRASQSISSYLNWYQQKPGKAPKLLIYSASQLQSGVPSRFSGSGSGTDFTLTISSLQPEDFATYYCQQGPGTPNTFGQGTKVEIKRA
notes: Clone45 with VH-Q50L; Soluble scFv; also called scFv Q1L
Kd [36]: 58.3 nM | koff [36]: 0.0055 s⁻¹ | kon [36]: 94300 M⁻¹ s⁻¹

B2: S3.6 scFv (scFv)
scFv: EVQLLESGGGLVQPGGSLRLSCAASGFTFSSYAMSWVRQAPGKGLEWVSLIDPWGQETLYADSVKGRFTISRDNSKNTLYLQMNSLRAEDTAVYYCAKLTGRFDYWGQGTLVTVSSGGGGSGGGGSGGGGSTDIQMTQSPSSLSASVGDRVTITCRASQSISNYLNWYQQKPGKAPKLLIYSASQLQSGVPSRFSGSGSGTVFTLTISSLQPEDFATYYCQQGPGTPNTFGQGTKVEIKRA
notes: Soluble scFv, Ni-NTA purified, detected with anti-Flag
binding result [37]: no binding | binding result [38]: no binding | Kd [36]: 14.1 nM

B3: Q2L scFv (scFv)
scFv: EVQLLESGGGLVQPGGSLRLSCAASGFTFSSYAMSWVRQAPGKGLEWVSLIDPWGQETLYADSVKGRFTISRDNSKNTLYLQMNSLRAEDTAVYYCAKLTGRFDYWGQGTLVTVSSGGGGSGGGGSGGGGSTDIQMTQSPSSLSASVGDRVTITCRASQSISSYLNWYQQKPGKAPKLLIYSASLLQSGVPSRFSGSGSGTDFTLTISSLQPEDFATYYCQQGPGTPNTFGQGTKVEIKRA
notes: Clone45 with VH-Q50L and VL-Q53L; Soluble scFv; also called scFv Q2L
binding result [37]: no binding | binding result [38]: no binding | EC50 (read off the curve) [39]: ~100 nM | Kd [36]: 3.08 nM

B5: S3.3 scFv (scFv)
scFv: EVQLLESGGGLVQPGGSLRLSCAASGFTFSSYAMSWVRQAPGKGLEWVSLIDPWGQETLYADSVKGRFTISRDNSKNTLYLQMNSLRAEDTAVYYCAKLTGRFDYWGQGTLVTVSSGGGGSGGGGSGGGGSTNIQMTQSPSSLSASVGDRVTITCRASQSISSYLNWYQQKPGKAPKLLIYSASLLQSGVPSRFSGNGSGTDFTLTISSLQPEDFATYYCQQGPGTPNTFGQGTKVEIKRA
notes: as for B2
binding result [37]: no binding | binding result [38]: no binding | EC50 (read off the curve) [40]: ~40 nM | Kd [36]: 2.43 nM

B6: Q2L-CAR (other)
chain: EVQLLESGGGLVQPGGSLRLSCAASGFTFSSYAMSWVRQAPGKGLEWVSLIDPWGQETLYADSVKGRFTISRDNSKNTLYLQMNSLRAEDTAVYYCAKLTGRFDYWGQGTLVTVSSGGGGSGGGGSGGGGSTDIQMTQSPSSLSASVGDRVTITCRASQSISSYLNWYQQKPGKAPKLLIYSASLLQSGVPSRFSGSGSGTDFTLTISSLQPEDFATYYCQQGPGTPNTFGQGTKVEIKRA
notes: Chimeric antigen receptor on the surface of human T cells or NK-92-MI cells; also called anti-HLA-A2/WT1126 CAR; NK-92-MI-scFv(Q2L); not shown: hinge region, CD8 alpha transmembrane domain, 4-1BB and CD3 zeta chain
binding result (HLA-A2/CDR2 (…) tetramer): no binding

Molecule: RMFPNAPYL (also called WT1 peptide) [WT1126 peptide (RMFPNAPYL) by itself]
binding result (HLA-A2 on T2 cells): binds

Molecule: RMFPNAPAL (also called A8) [WT1126-Tyr8Ala peptide]
binding result (HLA-A2 on T2 cells): binds

Other lines, results leading:

binding result [37]: no binding | binding result [38]: no binding | EC50 (read off the curve) [40]: ~60 nM | Kd [36]: 12.9 nM
B4: S3.1 scFv (scFv)
scFv: EVQLLESGGGLVQPGGSLRLSCAASGFTFSSYAMSWVRQAPGKGLEWVSLIDPWGQETLYADSVKGRFTISRDNSKNTLYLQMNSLGAEDTAVYYCAKLTGRFDYWGQGTLVTVSSGGGGSGGGGSGGGGSTDIQMTQSPSSLSASVGDRVTITCRASQSISSYLNWYQQKPGKAPKLLIYSASQLQSGVPSRFSGSGSGTDFTLTISNLQPEDFATYYCQQGPGTPNTFGQGTKVEIKRA
notes: as for B2

binding result (HLA-A2 on T2 cells): binds
Molecule: AMFPNAPYL (also called A1) [WT1126-Arg1Ala peptide]

binding result (HLA-A2 on T2 cells): binds
Molecule: RMFPAAPYL (also called A5) [WT1126-Asn5Ala peptide]
